Results published in patent publication US20260234238A1 (GEOVISTA, published 2026).
“And” between values parts separate entries of the source, which are not always exact repeats. Equal entries are not always repeated.

Experiments:
[1] = molecular target: T1, recombinant histidine-tagged canine interleukin-13 (cIL-13) (canine, UniProt Q9N0W9 19-131, N-linked glycans attached to asparagine residues at positions 38, 48, 56, and 71); experiment: cell-based or functional assay
T1 sequence: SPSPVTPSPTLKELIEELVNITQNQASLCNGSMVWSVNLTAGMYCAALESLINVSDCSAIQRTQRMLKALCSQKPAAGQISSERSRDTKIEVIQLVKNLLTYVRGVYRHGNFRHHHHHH

[2] = molecular target: T1, recombinant histidine-tagged canine …; experiment: cell-based or functional assay; remark: listed apart in the source
[3] = molecular target: T1, recombinant histidine-tagged canine …; experiment: cell-based or functional assay; remark: listed apart in the source
[4] = molecular target: T1, recombinant histidine-tagged canine …; experiment: ELISA, cIL-13-coated plate
[5] = molecular target: T1, recombinant histidine-tagged canine …; experiment: ELISA, His-tagged cIL-13 on nickel-coated plate
Description: In one embodiment of the present disclosure, recombinant canine IL-13 (cIL-13) protein with a histidine tag was dispensed onto nickel-coated plates (Thermo Fisher, #15442) at 100 ng/100 μL per well and incubated at room temperature for 1 hour. The plates were then washed three times with 1×PBST, and serial dilutions of the chimeric antibodies in 1×PBS were added and incubated at room temperature for 1 hour to allow antigen-antibody binding. After three washes with 1×PBST, an HRP-conjugated secondary antibody that cross-reacts with canine antibodies was diluted 1:100 in casein buffer and added at 100 μL per well, followed by incubation at 37° C. for 30 minutes. The HRP-conjugated secondary antibody used may be Jackson ImmunoResearch, #115-036-071, and the casein buffer may be Thermo Fisher Scientific, #37528; however, these examples are not intended to limit the scope of the present disclosure. After another three washes with 1×PBST, TMB was added to initiate color development, and the reaction was terminated by the addition of an equal volume of 1.0 N sulfuric acid.

inhibition of IL-13-dependent TF-1 cell proliferation, IC50 [1]: 2.9 to 4.2 nM
TF-1 cell proliferation inhibition IC50 (Average) [2]: 437 ng/ml and 2.91 nM
TF-1 cell proliferation inhibition IC50 (Test 1) [2]: 494 ng/ml and 3.29 nM
TF-1 cell proliferation inhibition IC50 (Test 2) [2]: 492 ng/ml and 3.28 nM
TF-1 cell proliferation inhibition IC50 (Test 3) [2]: 325 ng/ml and 2.17 nM
Inhibitory Activity on TF-1 Cell Proliferation IC50 [3]: 3.97 nM
EC50 [4]: 0.0694 µg/mL and 0.463 nM
EC50 [5]: 0.218 µg/mL and 1.45 nM
B1: 32A10-#20 mouse monoclonal antibody (antibody, V domains shown)
VH: EVQLQQSGPELVKPGASVKVSCKTSGYSFTDYPIYWVRQSHGESLEWIGYIDPYNGGTTYNQNFKDKATLTVDKSSSTAFMHLNSLTSEDSAVYFCATAVVATDVMENWGQGTSVTVSS
VL: DIVLTQSQKFMSTSVGDRVSITCKASQNVRNAVAWFQQKPGQSPKALIYLASNRYTGVPDHFTGSGSGTDFTLTISNVQSEDLADYFCLQHWNYPLTFGAGTKLELK
notes: also called Mouse 32A10; Parental antibody (Mouse 32A10)
